# From patent US20240218054A1 (MABLOC, published 2024)
# Target: T1, recombinant YFV E protein (soluble E, sE; YFV Asibi strain) (Yellow fever virus, Asibi strain, UniProt Q6DV88 286-678)
# T1 construct: also called YFV E antigen; YFV E monomer
# Assay: BLI monovalent (IgG on tip)
# T1 sequence (Q6DV88 286-678): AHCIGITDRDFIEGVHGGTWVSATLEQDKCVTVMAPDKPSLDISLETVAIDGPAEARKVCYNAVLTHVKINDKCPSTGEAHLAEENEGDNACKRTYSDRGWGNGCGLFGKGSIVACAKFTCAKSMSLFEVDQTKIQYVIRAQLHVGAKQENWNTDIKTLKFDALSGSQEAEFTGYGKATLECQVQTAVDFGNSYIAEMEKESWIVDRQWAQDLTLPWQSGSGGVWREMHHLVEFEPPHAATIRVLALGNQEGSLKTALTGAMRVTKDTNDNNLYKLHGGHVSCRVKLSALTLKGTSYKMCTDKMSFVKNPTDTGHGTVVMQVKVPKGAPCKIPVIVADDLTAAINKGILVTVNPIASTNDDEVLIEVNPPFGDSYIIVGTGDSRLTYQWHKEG
row,Binder,Kd
1,"ADI-42847 (antibody, V domains shown, full-length IgG; also called Antibody Number 48) VH: EVQLLESGPRLVKPSETLSLTCTVSGGSVRGGSHYWSWIRQPPGKGLEWIGYVYDSGSTNYNPSLKSRVSISVDMSKKQFSLKLRSVTAADTAVYHCVRVEEYVNNEEVRDYWGQGTMVTVSS VL: DIVMTQTPATLSLSPGERATLSCRASQSVSSYLAWYQQKPGQAPRLLIYGASNRATGIPARFSGSGSGTDFTLTISSLEPEDFAVYYCLQRTNWPFTFGPGTKVEIK",3.21 nM
2,"ADI-42231 (antibody, V domains shown, full-length IgG; also called Antibody Number 64) VH: QVQLVQSGAEVKKPGASVKVSCKASGYSFTTYGISWVRQAPGQGLEWMGWISGYSGDTNYAQKVQGRVTMTTDTSTSTAYMELRSLRSDDTAVYYCARDQSHGTFGGVIDSTTLFYYYGMDVWGQGTTVTVSS VL: DIVMTQSPATLSLSPGERATLSCRASQSVSSYLAWYQQKPGQAPRLLIYDASNRATGIPARFSGSGSGTDFTLTISSLEPEDFAVYYCQQRSNWPSFGQGTKLEIK",42.1 nM
3,"ADI-42230 (antibody, V domains shown, full-length IgG; also called Antibody Number 47) VH: QVQLVESGGGVVQPGRSLRLSCAASGFTFSSYAMHWVRQAPGKGLEWVAVISHDGSNKYYADSVKGRFTISRDNSKNTLYLQINSLRAEDTAVYYCPRDGLPGANQYFFYYGMDVWGQGTTVTVSS VL: DIQVTQSPSSLSASVGDRVTITCRASQGISNYLAWYQQKPGKVPKLLIFAASTLRSGVPSRFRGSGSGTDFTLTISSLQPEDVATYYCQKYNSAPLTFGGGTKVEIK",1.99 nM
4,"ADI-42211 (antibody, V domains shown, full-length IgG; also called Antibody Number 58) VH: QVQLVESGGGVVQPGRSLRLSCGGSGFTFSSYGMHWVRQAPGKGLEWVAVISYDGSKKYSADSVKGRFTISRDNSKNTLYLQMNSLRAEDTAVYYCAKGSVSVAGAEDYWGQGTLVTVSS VL: DIQMTQSPSSLSASVGDRVTITCRASQGISSYLAWFQQKPGKVPKLLIYAASTLQSGVPSRFSGSGSGTDFTLTISSLQPEDVATYYCQKYNSAPQTFGQGTKVDIK",1.64 nM
5,"ADI-45085 (antibody, V domains shown, full-length IgG; also called Antibody Number 57) VH: EVQLVESGGGLVQPGGSLRLSCAASGFTFSSYAMSWVRQAPGKGLEWVSTFSGRGGSTYYADFVKGRFTISRDNSKNTLYLQMNSLRAEDTAVYYCAKYYDSSGYYYFDYWGQGTLVTVSS VL: DIQLTQSPSTLSASVGDRVTITCRASQSISTWLAWYQQKPGKAPKLLIYRASSLESGVPSRFSASGSGTEFTLSISSLQPDDFATYYCKQYNRNPYTFGQGTKVEIK",152 nM
6,"ADI-50211 (antibody, V domains shown, full-length IgG; also called Antibody Number 62) VH: EVQLVESGGGLVQPGGSLRLSCAASGFTFSAYAMSWVRQAPGRGLEWVSAISGSDRRIYYADSVKGRFSISRDNSKNTLYLQMSSLRAEDTAVYYCAKYYDSSGYYYLDYWGQGTLVTVSS VL: DIQLTQSPSTLSASVGDRVTITCRASQSVSSWLAWYQQKPGKAPRLLIYRASSLESGVPSRFSGSGSGTEFTLTISSLQPDDFAAYYCQQYNRDPYTFGQGTKVEIK",20.8 nM
7,"ADI-42199 (antibody, V domains shown, full-length IgG; also called Antibody Number 63) VH: EVQLVESGGGLVQPGGSLRLSCAASGFTFSDHYMAWVRQAPGKGLEWVGRIRNKPNSYTTEYAASVKGRFTISRHDSENSLYLQMNSLKTEDTAVYYCCRESGEGFDPWGQGTLVTVSS VL: SYELTQLPSVSVSPGQTARVTCSGDALQYVYWYQQKPGQAPVVVIYKDTERPSGIPERFSGSSSGTTVTLTITGVQAEDEADYYCQSADRSGSVIFGGGTKVTVL",0.7 nM
8,"ADI-49133 (antibody, V domains shown, full-length IgG; also called Antibody Number 6) VH: EVQLLESGGGLVQPGGSLRLSCAASGFTFRNYAMNWVRQTPGKGLEWVSGISGGGDSTNYADSVKGRFTISRDNSRNTLYLQLNSLRAEDTAVYYCAKDLAVSTPRYWFDSWGQGTLVTVSS VL: DIQMTQSPSSLSASVGDRVTITCRASQTISVDLNWYQHKPGKAPKLLIFAASTLQSGVPSRFSGSGSGTDFTLTIRSLQPEDFATYYCQQSYSIPRITFGQGTRLEIK",6.91 nM
9,"ADI-48908 (antibody, V domains shown, full-length IgG; also called Antibody Number 59) VH: EVQLLESGGGLVQPGRSLRLSCAVSGFTFAEYAMHWVRQAPGKGLEWVSSISWNSGRIGYVDSVRGRFTISRDNAKNSLYLQMNSLRVEDTAFYYCAKGYDSSGYYWADYWGQGTLVTVSS VL: EIVMTQSPATLSVSPGERATLSCRASQSVSFNLAWYQQKPGQAPRLLISRASTRAAGVPARFSGSGSGTEFTLTISSLQSEDFAVYYCQQYNNWPPLTFGGGTKLEIK",1.76 nM
10,"ADI-45097 (antibody, V domains shown, full-length IgG; also called Antibody Number 5) VH: EVQLVESGGGVVQPGRSLRLSCAASGFTFNSHGMHWVRQAPGKGLEWVAVISYDGTKKYFADSVKGRFTISRDNSKNTLYLQMSSLRADDTAVYYCAKDSSTSWYQVVYHIDYWGQGTLVTVSS VL: QSVVTQPPSVSAAPGQKVTISCSGSSSNIGNNYVAWYQQLPGRAPKLLIHDNKKRPSGIPDRFSGSASGTSATLGITGLQTGDEADYYCETWDSSLNAVVFGGGTKLTVL",1.62 nM
11,"ADI-45164 (antibody, V domains shown, full-length IgG; also called Antibody Number 65) VH: EVQLQESGPGLVKPSETLSLTCTVSGGSISSSSYYWGWIRQPPGKGLEWIGSIYYSGSTYYNPSLKSRVTISVDTSKNQFSLKLSSVTAADTAVYYCARGYCSSTSCFYYYYGMDVWGQGTTVTVSS VL: not shown",> 100 nM
12,"ADI-42849 (antibody, V domains shown, full-length IgG; also called Antibody Number 50) VH: QVQLVESGGGLVKPGGSLRLSCAASGFTFSDYYMSWIRQAPGKGLEWVSYITSSGNTMYYADSVKGRFTISRDNAKNSLYLQMNSLRAEDTAVYYCARDSNFNSNLDYWGQGTLVTVSS VL: SYELTQPPSVSVAPGQTARITCGGHNVGSKSVHWYQQKPGQAPVLVVYDDSDRPSGIPERFSGSNSGNTATLTISRVEAGDEADYYCQVWDSSSDHPWVFGGGTKVTVL",1.98 nM
13,"ADI-48913 (antibody, V domains shown, full-length IgG; also called Antibody Number 60) VH: EVQLLESGPGLVKPSETLSLTCTVSGGSISSYYWSWIRQPAGKGLELIGRIYTSGSGNYNPSLKRRVTMSVDTSKNQISLRLNSVTAADTAVYYCARERGGYFTEPFDIWGQGTMVTVSS VL: not shown",186 nM
14,"ADI-49138 (antibody, V domains shown, full-length IgG; also called Antibody Number 44) VH: QVQLVESGGGVVQPGRSLRLSCAASGFTFSNSGMHWVRQAPGKGLEWVSVIWYDESNKYYADSVKGRFTISRDNSKNTVYLQMNTLRAEDTAVYYCARDAYASGDGGIDYWGQGALVTVSS VL: QPVLTQSASVSGSPGQSITISCTGTSSDVGGYKYVSWYQQHPGKAPKLMIYEVSNRPSGVSIRFSGSKSGNTASLTISGLQAADEADYYCSSYRSSGTPYVFGTGTKVTVL",17.5 nM
15,"ADI-42154 (antibody, V domains shown, full-length IgG; also called Antibody Number 55) VH: EVQLVQSGGGLVQPGGSLRLSCAASGFTFSTYWMSWVRQAPGKGLEWVANIKQDGSEKYYVDSVKGRFTISRDNAKNSLYLQMNSLRAEDTAVYYCARDISCISTSCYGGYYYYGMDVWGQGTTVTVSS VL: not shown",164 nM
16,"ADI-48916 (antibody, V domains shown, full-length IgG; also called Antibody Number 56) VH: EVQLVESGGGVVQPGRSLRLSCAASGFTFSNSGMHWVRQAPGKGLEWVAVIWYDSRNQNYADSVKGRFTISRDNSKNTLFLQMNSLRAEDTAVYYCARDYYASGDGSIDYWGQGTLVTVSS VL: DIQVTQSPSSLSASVGGRVTITCRASQGIRNDLGWYQRKPGKAPKRLIYAASSLQSGVPSRFSGSGSGTEFTLTISSLQPEDFATYYCLQHNSYPLTFGGGTKVDIK",393 nM
17,"ADI-49161 (antibody, V domains shown, full-length IgG; also called Antibody Number 54) VH: QVQLVQSGAEVKKPGASVKVSCKASGYTFNTYAMTWVRQAPGQGLEWMGWISTYNGNTVFGQKFQGRVTLSTDTSTSTAYMELRSLTSDDTAVYYCAREDDDYYSMDVWGQGTTVTVSS VL: QPVLTQPASVSGSPGQSITISCTGTSTDVGGYNYVSWYQQYPGKAPKLIIYDVTNRPSGVSHRFSGSKSGNTASLTISGLQAEDEADYYCSSYTTTSLVIFGGGTKLTVL",1.81 nM
18,"ADI-46001 (antibody, V domains shown, full-length IgG; also called Antibody Number 52) VH: EVQLVESGGGLVKPGGSLRLSCAASGFTFSDYYMSWIRQAPGKGLEWVSYISSSGNTIYYADSVKGRFTISRDNAKNSLYLQLNSLRAGDTAVYYCARDSNYFYGLDVWGQGTTVTVSS VL: QPVLTQPPSVSVAPGQTARITCGGNNIGSKSVHWYQQKPGQAPMLVIYSNSDRPSGIPERFSGSNSGITATLTISRVEAGDEADYHCQVWDTSIDHHWVFGGGTKLTVL",6.17 nM
19,"ADI-45140 (antibody, V domains shown, full-length IgG; also called Antibody Number 61) VH: EVQLLESGGGLVHPGGSLRLSCAASGFTFSDYEMNWVRQAPGKGLEWVSHISSSGNIIYYADSVKGRFTISRDNAKDSLYLQMNSLRAEDTAVYYCAATIFGVVSFDYWGQGTLVTVSS VL: QSVLTQPPSVSAAPGQKVTISCSGSSSNIGNNYVSWYQQLPGTAPKVLIYDNNKRPSGIPDRFSGSKSGTSATLGITGLQTGDEADYYCGTWDSALGAAVFGGGTKLTVL",4.6 nM
20,"ADI-45154 (antibody, V domains shown, full-length IgG; also called Antibody Number 53) VH: EVQLVESGGGVVQPGRSLRLSCAASGFTFSNYGMHWVRQAPGKGLEWVAVISYDGSNKYYADSVKGRFTISRDDSKNTLYLQVNSLRAEDTAVYYCAKDICSGDCGGGDYWGQGTLVTVSS VL: QSVLIQPPSASGSPGQSVTISCTGTSSDVGGYNYVSWYQQHPGKAPKLMIYEVSKRPSGVPDRFSGSKSGNTASLTVSGLQAEDGADYYCSSYAGSNNWVVFGGGTKLTVL",> 100 nM
21,"ADI-42233 (antibody, V domains shown, full-length IgG; also called Antibody Number 66) VH: EVQLVESGGGLVKPGGSLRLSCVASGFTFSRYSMNWVRQAPGKGLEWVSSISHSGRYIYYADSEKGRFTISRDNAKNSLYLQMNSLRAEDTAVYYCARDHYFDSSGDYLSYYYNGMDVWGQGTTVTVSS VL: ETTLTQSPGTLSLSPGERATLSCRASRSVSGNYLAWYQQKPGQAPRLLIYAASSRATGIPDRFSGGGSGTHFTLTISRLEPEDFAVYYCQQYGSSPRAFGQGTKVEIK",2.98 nM
22,"ADI-42831 (antibody, V domains shown, full-length IgG; also called Antibody Number 46) VH: EVQLVESGGGLVQPGGSLRLSCAASGFTFINYAMTWVRQAPGKGLEWVSAISGNGDGTYYADSVKGRFTLSRDNAKNTIYLHMSALRDEDTALYYCAKDQGVTTDWPSDYWGQGTLVTVSS VL: DIRLTQSPSTLSASVGDRVTVTCRASQNINTYLAWYQQIPGKAPRLLIYRASTLESGVPSRFSGSGSGTEFTLTINSLQPDDYATYYCQHYETYSVRFGQGTKVEIK",19.6 nM
23,"ADI-42821 (antibody, V domains shown, full-length IgG; also called Antibody Number 49) VH: EVQLLESGGGLVPPGGSLRLSCAASGFTFSNYAMSWVRQAPGKGLEWVSAISGSGDSTYYADSVKGRFTLSRDTSKKMVYLHMSNLRDDDTAVYYCARDQGFTTDWPCDYWGQGTLVTVSS VL: DIVLTQSPSTLSASVGDRVTVTCRASQNINTYLAWYQQIPGKAPRLLIYRASSLESGVPSRFSGSGSGTEFTLTISSLQPDDFATYYCQHYNSFSVKFGQGTKVEIK",12.1 nM
